Some results are limits rather than exact numbers.

Test [1] deals with T1, PcrV of P. aeruginosa strain PA103 (on TTSS-induced bacteria) (Pseudomonas aeruginosa strain PA103). Put plainly: cell-based or functional assay.
The target of test [2] is T1, PcrV of P. aeruginosa strain PA103 (on …). In words: cell-based or functional assay. This is another data set of the same source.
Test [3] has as its target T2, recombinant PcrV protein (rPcrV), strain PAO1, amino acid residues 1-294, C-terminal His6 (Pseudomonas aeruginosa strain PAO1). In words: SPR ProteOn, periplasmic extract on immobilised rPcrV.
For test [4], the target named is T2, recombinant PcrV protein (rPcrV), …. Put plainly: ELISA, periplasmic extract on biotinylated rPcrV.
The target of test [5] is GST-PcrV (strain PAO1, amino acid residues 1-294) (Pseudomonas aeruginosa strain PAO1). Put plainly: SPR Biacore T100, GST-PcrV immobilised.
Throughout, for cytotox assay (% inhibition), P3X63, PA103: test concentration or dose not given here.

B1: Nanobody 11B09 (VHH)
VHH: EVQLVESGGGLVQAGGSLRLSCAASRLTFNHYNMGWFRQAPGKERERVAEVTWSGDKIYYVDSVKGRFTISRDNTPNPVYLYLQMNSLKPEDTAVYYCATAPRGLPYANGYWGQGTQVTVSS
On to B1, for which the “cytotox assay (% inhibition), P3X63, PA103” value (from here on “cytotox assay (% inhibition)”) in test [1] stood at 37%. In addition, in test [2], the “% inhibition, P3X63 cytotoxicity assay, MOI 3” value (from here on “% inhibition … MOI 3”) was determined as 100% and the “IC50 (nM), P3X63 cytotoxicity assay, MOI 3” value (shortened to “IC50 (nM) … MOI 3”) amounted to 100 nM. For the same molecule, in test [3], the koff (commonly the first-order rate constant of dissociation) stood at 0.0048 s⁻¹.

B2: Nanobody 10C05 (VHH)
VHH: EVQLVESGGGLVQPGGSLRLSCAASGSIFSINTMGWYRQAPGKQRDLVASITMNQVPNYADSVQGRFTISRDNVRNTVHLQMNAVKPEDTADYFCNAWVRSSGASPYTNYWGQGTQVTVSS
On to B2, for which, in test [1], the “cytotox assay (% inhibition)” value came out at 25%. In addition, in test [2], the “% inhibition … MOI 3” value came out at 100% and the “IC50 (nM) … MOI 3” value was > 1000 nM. The koff in test [3] amounted to 0.0006 s⁻¹.

B3: Nanobody 3B11 (VHH)
VHH: EVQLVESGGGLVQAGGSLRLSCAASGFTFDDYVIGWFRQAPGKEREGVSCISRLDGRTYYTDSVKGRFTISSDNAKNTVYLQMNSLKPEDTAVYYCALEPRYTGDYYPVHPELYDYWGQGTQVTVSS
B3: in test [1], the “cytotox assay (% inhibition)” value is 26%. In test [2], the “% inhibition, P3X63 cytotoxicity assay, MOI 4” value (“% inhibition … MOI 4” for short) was 54% and the “IC50 (nM), P3X63 cytotoxicity assay, MOI 4” value (shortened to “IC50 (nM) … MOI 4”) worked out at 1140 nM. Moreover, in test [4], the “binding ELISA (OD 450 nm)” value came to 0.55 OD 450 nm. In addition, in test [3], the koff was 0.0027 s⁻¹.

B4: Nanobody 12B02 (VHH)
VHH: EVQLVESGGGLVQPGGSLRLSCAASGFSLGVFAIGWFRQAPGKEREGVSCIDSSDGRTTYADSVKGRFTISRDNAKNTVYLQMNSLKPEDTAVYYCATDIETDVCSGAGWGFWGQGTQVTVSS
For the molecule B4, in test [1], the “cytotox assay (% inhibition)” value turned out to be 14%. The koff in test [3] is 4.4e-05 s⁻¹.

B5: Nanobody 3E10 (VHH)
VHH: EVQLVESGGGLVQAGGSLRLSCTASGHTFSSYTMGWFRQAPGKEREFVAAMTRSGFNTHYSDSVKGRFTISRDNTSRDNTKITMALQMNSLKPEDTAVYYCTTGRGLTSYVANFWGQGTQVTVSS
Consider B5, for which the “cytotox assay (% inhibition)” value in test [1] was determined as 25%. Also, in test [2], the “% inhibition … MOI 4” value came to 94% and the “IC50 (nM) … MOI 4” value came out at 48 nM. Further, in test [5], binding was characterised by a dissociation constant (Kd) of 1 nM, the koff is 0.0039 s⁻¹ and the kon (commonly a measure of how fast the partners come together) amounted to 2.7e+06 M⁻¹ s⁻¹. Besides, in test [4], the “binding ELISA (OD 450 nm)” value came to 2.51 OD 450 nm. The koff in test [3] was determined as 0.0015 s⁻¹.

B6: Nanobody 4C03 (VHH)
VHH: EVQLVESGGGLVQAGGSLRLSCVISASTVRNYDMGWFRQAPGKEREFVAAIDWSGGSTRYADSVKGRFTVSRDNAKNTVYLQMNSLKPEDTAVYYCVAAGFYNNYLRTAPNDWNYWGQGTLVTVSS
For B6, in test [1], the “cytotox assay (% inhibition)” value was 22%. In test [2], the “% inhibition, P3X63 cytotoxicity assay, MOI 1.5” value is > 20% and the “IC50 (nM), P3X63 cytotoxicity assay, MOI 1.5” value was found to be 8890 nM. Besides, the “binding ELISA (OD 450 nm)” value in test [4] is 0.89 OD 450 nm. Moreover, in test [3], the off-rate (koff) worked out at 0.0068 s⁻¹.

B7: Nanobody 4G10 (VHH)
VHH: EVQLVESGGGLVQAGGSLRLSCVISEDGVRNYDMGWFRQAPGKEREFVATINWSGGSTNYADSVKGRFTVSRDNAKNTMYLQMDSLKPEDTAVYYCVAAGFYNNYLRTAPNDWNDWGQGTQVTVSS
For the molecule B7, the “cytotox assay (% inhibition)” value in test [1] worked out at 81%. In test [2], the “% inhibition … MOI 4” value was determined as 100% and the “IC50 (nM) … MOI 4” value was 105 nM. In test [5], binding was characterised by a dissociation constant (Kd) of 5 nM, the koff worked out at 0.00065 s⁻¹ and the association rate constant (kon) came out at 140000 M⁻¹ s⁻¹. The “binding ELISA (OD 450 nm)” value in test [4] amounted to 2.6 OD 450 nm. In test [3], the off-rate (koff) amounted to 0.00013 s⁻¹.

B8: Nanobody 7C10 (VHH)
VHH: EVQLVESGGGLVQAGGSLRLSCTASGRTLSSYTMGWFRQAPGTEREFVAAMTRSGFNTYYADSVKGRFTISRDSTENTMALQMSSLKPEDTAVYYCTAGRGLTSYRADYWGQGTLVTVSS
For the molecule B8, the “cytotox assay (% inhibition)” value in test [1] was found to be 58%. In test [2], the “% inhibition … MOI 4” value turned out to be 100% and the “IC50 (nM) … MOI 4” value was 42 nM. Besides, in test [5], the dissociation constant (Kd) – broadly, the equilibrium constant for the complex coming apart – worked out at 2 nM; the koff worked out at 0.0018 s⁻¹; the kon was determined as 1.2e+06 M⁻¹ s⁻¹. For the same molecule, in test [4], the “binding ELISA (OD 450 nm)” value was determined as 2.55 OD 450 nm. Also, the koff in test [3] was 0.00082 s⁻¹.

B9: Nanobody 2B02 (VHH)
VHH: EVQLVESGGGLVQPGDSLRLSCAASGRILSINNMVWYRQAPGKQRELVAHITSSGSTGYADSVKGRFTISRDNAKNTFYLQMTNLNPEDTAVYYCNCWVSSDSNAPLKNYWGQGTQVTVSS
On to B9, for which the “cytotox assay (% inhibition)” value in test [1] was 46%. Also, in test [2], the “% inhibition … MOI 4” value worked out at 100% and the “IC50 (nM) … MOI 4” value was found to be 1730 nM. The “binding ELISA (OD 450 nm)” value in test [4] was 2.4 OD 450 nm. The koff in test [3] was found to be 0.00037 s⁻¹.

B10: Nanobody 5E02 (VHH)
VHH: EVQLVESGGGLVQPGGSLRLSCAASGITLDSIAICWFRQAPGKEREGVSCSRGSDGSTYYADSVKGRFTISRVNAKNTVYLQMNSLKPEDTAVYYCAAAPSIFYSGGYFPSGMDYWGKGTQVTVSS
B10: the “cytotox assay (% inhibition)” value in test [1] was 71%. Besides, in test [2], the “% inhibition … MOI 4” value was 100% and the “IC50 (nM) … MOI 4” value came out at 38 nM. For the same molecule, in test [5], the Kd worked out at 4 nM, the koff turned out to be 0.00068 s⁻¹ and the kon came out at 180000 M⁻¹ s⁻¹. Also, the “binding ELISA (OD 450 nm)” value in test [4] turned out to be 2.43 OD 450 nm. Also, the koff in test [3] worked out at 0.00057 s⁻¹.

B11: Nanobody 2G09 (VHH)
VHH: EVQLVESGGGLVQPGGSLRLSCAASGSFGDNYELYAMTWFRQAPGERRDFVASVTGDGSTSYADSVKDRFTISRDNAKKLMYLQMNSLKPEDTAVYYCRLLNYWGQGTLVTVSS
As to B11, in test [1], the “cytotox assay (% inhibition)” value came out at 45%. In addition, in test [2], the “% inhibition … MOI 4” value amounted to 55% and the “IC50 (nM) … MOI 4” value was determined as 4 nM. Moreover, the “binding ELISA (OD 450 nm)” value in test [4] came to 2.37 OD 450 nm. In test [3], the koff is 0.001 s⁻¹.

B12: Nanobody 14B10 (VHH)
VHH: EVQLVESGGGLVQPGGSLRLSCAASGRIFSINNMGWYHQAPGKQRELVATITMNGITTYADSVKGRFTISRDNAKNTVYLQMNSLKPEDTAVYYCSCWVRSSGGDPYRDYWGQGTQVTVSS
Regarding B12, in test [1], the “cytotox assay (% inhibition)” value came out at 20%. In addition, in test [2], the “% inhibition … MOI 3” value was > 70% and the “IC50 (nM) … MOI 3” value is > 3000 nM. Also, the koff in test [3] was 0.00092 s⁻¹.

The values are drawn from patent US20190055322A1 (Ablynx, published 2019).
